Assay results taken from US20090136977A1 (published 2009).

B1: ATase2 (acetyltransferase 2) with a myc tag at the C-terminus (enzyme, not shown: small tags and cut ends)
chain: MAPCHIRKYQESDRQWVVGLLSRGMAEHAPATFRQLLKLPRTLILLLGGPLALLLVSGSWLLALVFSISLFPALWFLAKKPWTEYVDMTLCTDMSDITKSYLSERGSCFWVAESEEKVVGMVGALPVDDPTLREKRLQLFHLFVDSEHRRQGIAKALVRTVLQFARDQGYSEVILDTGTIQLSAMALYQSMGFKKTGQSFFCVWARLVALHTVHFIYHLPSSKVGSL
B2: ATase1 (acetyltransferase 1) with a myc tag at the C-terminus (enzyme, not shown: small tags and cut ends)
chain: MAPYHIRKYQESDRKSVVGLLSRGMAEHAPATFRRLLKLPRTLILLLGGALALLLVSGSWILALVFSLSLLPALWFLAKKPWTRYVDIALRTDMSDITKSYLSECGSCFWVGESEEKVVGTVGALPVDDPTLREKRLQLFHLSVDNEHRGQGIAKALVRTVLQFARDQGYSEVVLDTSNIQLSAMGLYQSLGFKKTGQSFFHVWARLVDLHTVHFIYHLPSAQAGRL

Biological target: affinity purified BACE1 (BACE1-myc, wild type) (UniProt P56817 22-501, limits assumed)
Sequence (P56817 22-501 limits assumed, form in doubt): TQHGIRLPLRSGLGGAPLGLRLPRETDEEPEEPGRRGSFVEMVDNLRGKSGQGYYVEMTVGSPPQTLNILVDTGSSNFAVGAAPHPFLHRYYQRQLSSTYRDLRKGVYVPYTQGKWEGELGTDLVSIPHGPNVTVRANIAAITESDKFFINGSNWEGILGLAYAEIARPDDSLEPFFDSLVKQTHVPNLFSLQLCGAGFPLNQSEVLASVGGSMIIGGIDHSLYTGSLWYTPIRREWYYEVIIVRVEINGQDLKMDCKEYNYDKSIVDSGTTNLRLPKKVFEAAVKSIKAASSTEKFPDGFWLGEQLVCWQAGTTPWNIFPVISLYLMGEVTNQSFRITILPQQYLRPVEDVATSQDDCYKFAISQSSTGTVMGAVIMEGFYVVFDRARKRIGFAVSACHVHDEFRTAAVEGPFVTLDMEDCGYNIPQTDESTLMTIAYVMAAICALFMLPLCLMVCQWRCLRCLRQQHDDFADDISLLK
Test: cell-based or functional assay

Binder	acetylCoA:lysine acetyltransferase activity recovered from total cell extracts (acceptor: affinity purified BACE1) [fold]	acetyltransferase activity recovered from cell extracts (acceptor: affinity purified BACE1) [fold]
B1	~3	–
B2	–	~2
